This is an account of results in patent US20210163923A1.

This experiment deals with Heat inactivated human AB serum labelled with Dylight 633 (human). The experiment is described as follows: flow cytometry, IgG displayed on HEK293 cells, anti-Fc PE and Dylight 633 labelled human AB serum.

“Nivolumab displayed from pINT17-BSD (antibody)” yielded a % cells double positive for antibody and human serum binding of 3.7%.

On to Vesencumab (antibody), for which the % cells double positive for antibody and human serum binding worked out at 12.3%.
